Key:
[1] = biological target: T1, IL10 (UniProt P22301 19-178); experiment: MicroScale Thermophoresis, 5 nM NT647-labeled receptor fusion against a gradient of ligand, 25 C
Experimental: (§1) The affinity of QTY modified cytokine receptor fused with Fc of IgG for their respective native ligands was measured using MicroScale Thermophoresis (MST). Changes in thermophoretic movement for labeled proteins upon ligand-binding were recorded and plotted as a function of ligand concentration.
(§2) MicroScale Thermophoresis (MST) is an optical method detecting changes in thermophoretic movement and TRIC of the protein-attached fluorophore upon ligand binding. Active labelled proteins contribute to the thermophoresis signal upon ligand binding. […] Herein ligand binding experiments were carried out with 5 nM NT647-labeled protein in 1× PBS, 10 mM DTT buffer with different concentration of arginine, against a gradient of respective ligands on a Monolith NT.115 pico instrument at 25° C. Synthesized receptors were labeled with Monolith NT™ 2nd generation protein labeling kit RED-NHS (NanoTemper Technologies) so as to obtain unique fluorescent signals. MST time traces were recorded and analyzed to obtain the highest possible signal-to-noise levels and amplitudes, >5 Fnorm units. The recorded fluorescence was plotted against the concentration of ligand, and curve fitting was performed using the Kd fit formula derived from the law of mass action. For clarity, binding graphs of each independent experiment were normalized to the fraction bound (0=unbound, 1=bound). MST experiments were performed in the Center for Macromolecular Interactions at Harvard Medical School.

[2] = biological target: T1, IL10; experiment: MicroScale Thermophoresis (MST), fluorescently labelled receptor fusion titrated with IL10
Description: (§3) FIG. 3A-3D. MST ligand binding measurements. The receptors were labeled with fluorescent dye. The ligands were purchased commercially from and dissolved in di water. (FIG. 3A) IL4Rα^QTY-Fc with IL4; (FIG. 3B) IL10Rα^QTY-Fc with IL10; (FIG. 3C) IFNγR1^QTY-Fc with IFNγ; (FIG. 3D) […].
as §2, with “MST experiments were performed in the Center for Macromolecular Interactions at Harvard Medical School.” left out

[3] = biological target: T2, IFNγ (UniProt P01579 24-166, limits assumed); experiment: MicroScale Thermophoresis, 5 nM NT647-labeled receptor fusion against a gradient of ligand, 25 C
T2 sequence (looked up): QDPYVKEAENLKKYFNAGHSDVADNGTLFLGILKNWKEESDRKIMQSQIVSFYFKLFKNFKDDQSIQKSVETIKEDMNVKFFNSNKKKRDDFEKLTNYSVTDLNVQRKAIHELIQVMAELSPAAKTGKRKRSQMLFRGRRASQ
Experimental: as §1, §2

[4] = biological target: T2, IFNγ; experiment: MicroScale Thermophoresis (MST), fluorescently labelled receptor fusion titrated with IFNγ
Description: as §3
as §2, with “MST experiments were performed in the Center for Macromolecular Interactions at Harvard Medical School.” left out

[5] = biological target: T3, IL29 (UniProt Q8IU54 20-200, limits assumed); experiment: MicroScale Thermophoresis, 5 nM NT647-labeled receptor fusion against a gradient of ligand, 25 C
T3 sequence (Q8IU54 20-200 limits assumed): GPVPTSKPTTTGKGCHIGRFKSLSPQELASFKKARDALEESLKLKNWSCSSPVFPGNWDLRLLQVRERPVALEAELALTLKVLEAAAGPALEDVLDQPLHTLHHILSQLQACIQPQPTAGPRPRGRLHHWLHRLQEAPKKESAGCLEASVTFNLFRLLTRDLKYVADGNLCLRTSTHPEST
Experimental: as §1, §2

[6] = biological target: T3, IL29; experiment: MicroScale Thermophoresis (MST), fluorescently labelled receptor fusion titrated with IL29
Description: as §3
as §2, with “MST experiments were performed in the Center for Macromolecular Interactions at Harvard Medical School.” left out

T1 sequence (P22301 19-178 limits assumed): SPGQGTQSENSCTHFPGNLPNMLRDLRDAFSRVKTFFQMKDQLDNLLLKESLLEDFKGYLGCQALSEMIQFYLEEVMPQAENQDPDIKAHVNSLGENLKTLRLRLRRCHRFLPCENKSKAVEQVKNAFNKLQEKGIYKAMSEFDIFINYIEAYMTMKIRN

B1: IL10Rα^QTY-Fc (HUMAN Interleukin-10 receptor subunit alpha-Fc fusion) (Fc fusion)
chain: HGTELPSPPSVWFEAEFFHHILHWTPIPNQSESTCYEVALLRYGIESWNSISNCSQTLSYDLTAVTLDLYHSNGYRARVRAVDGSRHSNWTVTNTRFSVDEVTLTVGSVNLEIHNGFILGKIQLPRPKMAPANDTYESIFSHFREYEIAIRKVPGNFTFTHKKVKHENFSLLTSGEVGEFCVQVKPSVASRSNKGMWSKEECISLTRQYFTVTNTTTYYAYTQQQSGAQAYCQAQQLYVRRRKKTETSQVAPAHHHHHHHHHHGSKLVDPRGPTIKPCPPCKCPAPNLLGGPSVFIFPPKIKDVLMISLSPIVTCVVVDVSEDDPDVQISWFVNNVEVHTAQTQTHREDYNSTLRVVSALPIQHQDWMSGKEFKCKVNNKDLPAPIERTISKPKGSVRAPQVYVLPPPEEEMTKKQVTLTCMVTDFMPEDIYVEWTNNGKTELNYKNTEPVLDSDGSYFMYSKLRVEKKNWVERNSYSCSVVHEGLHNHHTTKSFSRTPGK
modifications: labeled with NT647 RED-NHS fluorescent dye for MST
[1]
  Kd: 1.6 nM
[2]
  EC50 (read off the curve): ~4 nM

B2: IFNγR1^QTY-Fc (HUMAN Interferon gamma receptor 1-Fc fusion) (Fc fusion)
chain: EMGTADLGPSSVPTPTNVTIESYNMNPIVYWEYQIMPQVPVFTVEVKNYGVKNSEWIDACINISHHYCNISDHVGDPSNSLWVRVKARVGQKESAYAKSEEFAVCRDGKIGPPKLDIRKEEKQIMIDIFHPSVFVNGDEQEVDYDPETTCYIRVYNVYVRMNGSEIQYKILTQKEDDCDEIQCQLAIPVSSLNSQYCVSAEGVLHVWGVTTEKSKEVCITIFNSSIKGSQWTPTTAAQQQYQTQSQTYTCFYIKKTETSQVAPAHHHHHHHHHHGSKLVDPRGPTIKPCPPCKCPAPNLLGGPSVFIFPPKIKDVLMISLSPIVTCVVVDVSEDDPDVQISWFVNNVEVHTAQTQTHREDYNSTLRVVSALPIQHQDWMSGKEFKCKVNNKDLPAPIERTISKPKGSVRAPQVYVLPPPEEEMTKKQVTLTCMVTDFMPEDIYVEWTNNGKTELNYKNTEPVLDSDGSYFMYSKLRVEKKNWVERNSYSCSVVHEGLHNHHTTKSFSRTPGK
modifications: labeled with NT647 RED-NHS fluorescent dye for MST
[3]
  Kd: 6.2 nM
[4]
  EC50 (read off the curve): ~9 nM

B3: IFNλR1^QTY-Fc (HUMAN Interferon lambda receptor 1-Fc fusion) (Fc fusion)
chain: RPRLAPPQNVTLLSQNFSVYLTWLPGLGNPQDVTYFVAYQSSPTRRRWREVEECAGTKELLCSMMCLKKQDLYNKFKGRVRTVSPSSKSPWVESEYLDYLFEVEPAPPVLVLTQTEEILSANATYQLPPCMPPLDLKYEVAFWKEGAGNKTLFPVTPHGQPVQITLQPAASEHHCLSARTIYTFSVPKYSKFSKPTCFLLEVPEANWAYQTQPSQQTQQQTTAAGGTTWKTLMGNTETSQVAPAHHHHHHHHHHGSKLVDPRGPTIKPCPPCKCPAPNLLGGPSVFIFPPKIKDVLMISLSPIVTCVVVDVSEDDPDVQISWFVNNVEVHTAQTQTHREDYNSTLRVVSALPIQHQDWMSGKEFKCKVNNKDLPAPIERTISKPKGSVRAPQVYVLPPPEEEMTKKQVTLTCMVTDFMPEDIYVEWTNNGKTELNYKNTEPVLDSDGSYFMYSKLRVEKKNWVERNSYSCSVVHEGLHNHHTTKSFSRTPGK
modifications: labeled with NT647 RED-NHS fluorescent dye for MST
[5]
  Kd: 11.5 nM
[6]
  EC50 (read off the curve): ~10 nM
